Target: the molecule itself
Experiment: crystal structure

B1: CepR2 ligand binding domain (CepR2-LBD, 1-170) (domain or fragment)
chain: SNAMDLTILHDCFDALQRAPTAEAAFPPIAAAAAALGFRYCVYGLRRTLPLARPDMQIVGNHPREWEHRYVKFGYVTIDPIIKRVASQPRPVVWNAFDEPGDTAFWHDAACFGMRYGWSHGGYDRAGNLGVLTLVRDTTPLDADEISRLRAPCASLSHAAHAYLMPRLADPIA
modifications: selenomethionine (SeMet-substituted protein; SeMet53 named)
Q: With B1 as the protein, how does the “stoichiometry N” value read?
A: The value was 2.
